Experiments:
TfR1 peptide D1-helix1 [1] = target: T1, TfR1 peptide D1-helix1 (human); experiment: peptide ELISA on streptavidin plate, 2 µg/mL 2H7-hFc
T1 construct: Synthetic peptide, captured on a streptavidin-coated plate; also called peptide No. 1
T1 peptide: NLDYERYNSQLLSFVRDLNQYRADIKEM
Procedure: (§1) The peptide-antibody binding was identified using a standard enzyme-linked immunosorbent assay (ELISA). The steps were as follows: [0244] (1) The wells of an ELISA plate were coated with 100 μL of 2 μg/mL SA (streptavidin) protein at 4° C. overnight. […] (2) The wells of the ELISA plate were washed with PBST buffer. After adding 200 μL of 2% BSA, the plate was blocked at 37° C. for 1 h. […] (3) The peptide protein was diluted to 2 μg/mL, and a negative control and a positive control (AVI-tagged TfR1 protein) were included. Each experiment contained duplicate controls. […] (4) The wells of the ELISA plate were washed multiple times with PBST buffer. Then, 100 μL of the diluted peptide protein solution from step (3) was added into wells in duplicate, and along with the negative control wells, incubated at 37° C. for 1 h. [0248] (5) The wells of the ELISA plate were washed multiple times with PBST buffer. […] [0249] (6) The wells of the ELISA plate were washed multiple times with PBST buffer. Then, 100 μL of 2× anti-hFc HRP secondary antibody was added, and the plate was incubated at 37° C. for 1 h. [0250] (7) The wells of the ELISA plate were washed multiple times with PBST buffer. After adding 100 μL of TMB chromogenic solution, the reaction was carried out in the dark at room temperature for 30 min. [0251] (8) 100 μL of stop solution (1 mol/L HCl) was added to terminate the reaction. OD450 was measured using a microplate reader, and the readings were recorded.

[2] = target: T2, TfR1 peptide D1-helix2-helix3 (human); experiment: as above
T2 construct: Synthetic peptide, captured on a streptavidin-coated plate; also called peptide No. 4
T2 peptide: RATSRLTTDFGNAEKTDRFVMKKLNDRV
Procedure: as §1

TfR1 peptide D3-helix1 = target: T3, TfR1 peptide D3-helix1 (human); experiment: as above
T3 construct: Synthetic peptide, captured on a streptavidin-coated plate; also called peptide No. 5
T3 peptide: RLYWDDLKRKLSEKLDSTD
Procedure: as §1

TfR1 peptide D3-helix2 [3] = target: T4, TfR1 peptide D3-helix2 (human); experiment: as above
T4 construct: Synthetic peptide, captured on a streptavidin-coated plate; also called peptide No. 6
T4 peptide: FTSTIKLLNENSYV
Procedure: as §1

TfR1 peptide D3-helix3 = target: T5, TfR1 peptide D3-helix3 (human); experiment: as above
T5 construct: Synthetic peptide, captured on a streptavidin-coated plate; also called peptide No. 7
T5 peptide: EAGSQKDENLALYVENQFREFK
Procedure: as §1

[4] = target: T6, TfR1 peptide D3-helix1-helix2 (human); experiment: as above
T6 construct: Synthetic peptide, captured on a streptavidin-coated plate; also called peptide No. 8
T6 peptide: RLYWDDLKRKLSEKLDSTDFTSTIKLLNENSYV
Procedure: as §1

[5] = target: T7, TfR1 peptide D3-helix2-helix3 (human); experiment: as above
T7 construct: Synthetic peptide, captured on a streptavidin-coated plate; also called peptide No. 9
T7 peptide: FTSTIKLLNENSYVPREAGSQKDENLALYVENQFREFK
Procedure: as §1

[6] = target: T8, TfR1 peptide D3-helix3-loop1 (human); experiment: as above
T8 construct: Synthetic peptide, captured on a streptavidin-coated plate; also called peptide No. 10
T8 peptide: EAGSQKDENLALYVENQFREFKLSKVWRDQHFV
Procedure: as §1

TfR1 peptide D3-loop1 [7] = target: T9, TfR1 peptide D3-loop1 (human); experiment: as above
T9 construct: Synthetic peptide, captured on a streptavidin-coated plate; also called peptide No. 11
T9 peptide: LSKVWRDQHFV
Procedure: as §1

TfR1 peptide D2-loop1 [8] = target: T10, TfR1 peptide D2-loop1 (human); experiment: as above
T10 construct: Synthetic peptide, captured on a streptavidin-coated plate; also called peptide No. 12
T10 peptide: GTKKDFEDLY
Procedure: as §1

TfR1 peptide D2-loop1-K = target: T11, TfR1 peptide D2-loop1-K (human); experiment: as above
T11 construct: Synthetic peptide, captured on a streptavidin-coated plate; also called peptide No. 13
T11 peptide: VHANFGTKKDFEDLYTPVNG
Procedure: as §1

TfR1 peptide D2-loop3-K = target: T12, TfR1 peptide D2-loop3-K (human); experiment: as above
T12 construct: Synthetic peptide, captured on a streptavidin-coated plate; also called peptide No. 14
T12 peptide: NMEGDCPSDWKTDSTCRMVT
Procedure: as §1

TfR1 peptide D1-helix5 = target: T13, TfR1 peptide D1-helix5 (human); experiment: as above
T13 construct: Synthetic peptide, captured on a streptavidin-coated plate; also called peptide No. 17
T13 peptide: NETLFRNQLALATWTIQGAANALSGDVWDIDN
Procedure: as §1

TfR1 peptide D2-loop2-K = target: T14, TfR1 peptide D2-loop2-K (human); experiment: as above
T14 construct: Synthetic peptide, captured on a streptavidin-coated plate; also called peptide No. 21
T14 peptide: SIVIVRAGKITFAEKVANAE
Procedure: as §1

TfR1 peptide D1-helix1 [9] = target: T1, TfR1 peptide D1-helix1; experiment: peptide ELISA on streptavidin plate, 2 µg/mL 2H7-hFc, anti-hFc HRP
Procedure: as §1

TfR1 peptide D3-helix2 [10] = target: T4, TfR1 peptide D3-helix2; experiment: as above
Procedure: as §1

[11] = target: T6, TfR1 peptide D3-helix1-helix2; experiment: as above
Procedure: as §1

TfR1 peptide D3-loop1 [12] = target: T9, TfR1 peptide D3-loop1; experiment: as above
Procedure: as §1

TfR1 peptide D2-loop1 [13] = target: T10, TfR1 peptide D2-loop1; experiment: as above
Procedure: as §1

B1: anti-humanized TfR1 single-domain antibody-Fc fusion antibody 2H7-hFC1 (Fc fusion)
chain (part 1 of 2): ESGGGLVQPGESLRLSCVASGSIWSIYTMGWYRQAPGKQRDFVASITGDSTRTLESVKDRFIISRDNTKNTLYLQMNSLKPEDTAVYYCQAITSLGEYWGQGTQVTVSS
notes: Expressed in 293F cells, Protein A purified; labelled with pHrodo iFL Green in the internalization assays; also called VHH-hFc; not shown: human IgG1 Fc: hinge, CH2 and CH3 regions, from vector RJK-V4-hFC1; limits and junction (multiple cloning site) not stat
B1: no binding (tested: P/N 1.2, limit 2) (TfR1 peptide D1-helix1 [1]); no binding (tested: P/N 1.4, limit 2) [2]; no binding (tested: P/N 1.1, limit 2) (TfR1 peptide D3-helix1). B1: no binding (tested: P/N 1.3, limit 2) (TfR1 peptide D3-helix2 [3]); no binding (tested: P/N 1.1, limit 2) (TfR1 peptide D3-helix3); no binding (tested: P/N 1.1, limit 2) [4]. B1: no binding (tested: P/N 1.2, limit 2) [5]; no binding (tested: P/N 1.7, limit 2) [6]; no binding (tested: P/N 1.4, limit 2) (TfR1 peptide D3-loop1 [7]). B1: no binding (tested: P/N 1.4, limit 2) (TfR1 peptide D2-loop1 [8]); no binding (tested: P/N 1.2, limit 2) (TfR1 peptide D2-loop1-K); no binding (tested: P/N 1.5, limit 2) (TfR1 peptide D2-loop3-K). For the same binder, the binding result (TfR1 peptide D1-helix5) was “no binding (tested: P/N 1.2, limit 2)”, the binding result (TfR1 peptide D2-loop2-K) was “no binding (tested: P/N 1.3, limit 2)” and the OD450 (TfR1 peptide D1-helix1 [9]) was 0.21. For the same binder, the OD450 (TfR1 peptide D3-helix2 [10]) was 0.17, the OD450 [11] was 0.274 and the OD450 (TfR1 peptide D3-loop1 [12]) was 0.17. The OD450 (TfR1 peptide D2-loop1 [13]) was 0.176.
